Laboratory results: US20250163162A1 (SYNTHEKINE, published 2025)

T1: cIL2Rg-Fc (lot#P210115SV5) (cynomolgus, UniProt A0A2K5VGJ6 23-262)
T1 construct: Named only by lot number; also called cynomolgus IL2Rg-Fc; not shown: Fc of the fusion protein
T1 sequence: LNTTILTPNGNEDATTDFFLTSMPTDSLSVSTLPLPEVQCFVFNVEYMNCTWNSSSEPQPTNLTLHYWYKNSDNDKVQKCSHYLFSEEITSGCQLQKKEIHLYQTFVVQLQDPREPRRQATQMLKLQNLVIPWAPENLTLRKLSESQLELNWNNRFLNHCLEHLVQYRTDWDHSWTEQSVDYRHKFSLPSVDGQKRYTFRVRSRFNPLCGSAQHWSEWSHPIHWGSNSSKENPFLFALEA

T2: hIL2Rg-Fc (SinoBiological cat#10555) (human, UniProt P31785 23-254, limits assumed)
T2 construct: Bought Fc fusion (SinoBiological cat#10555); P31785 is printed for hCD132 in the background; also called human IL2Rg-Fc; not shown: Fc of the bought fusion protein
T2 sequence (looked up): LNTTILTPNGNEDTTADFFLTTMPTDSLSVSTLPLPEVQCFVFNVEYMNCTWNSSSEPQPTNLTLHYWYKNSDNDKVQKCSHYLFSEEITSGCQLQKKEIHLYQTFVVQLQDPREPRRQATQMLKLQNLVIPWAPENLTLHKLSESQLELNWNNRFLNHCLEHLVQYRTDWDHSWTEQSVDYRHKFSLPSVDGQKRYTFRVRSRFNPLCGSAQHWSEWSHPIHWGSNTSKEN


Legend:
[1] = biological target: T1, cIL2Rg-Fc (lot#P210115SV5); test: SPR (Biacore T200), Fc-fused ligand captured on chip, dual VHH as analyte, 1:1 Langmuir fit
Description: (§1) All experiments were conducted in 10 mM Hepes, 150 mM NaCl, 0.05% (v/v) Polysorbate 20 (PS20) and 3 mM EDTA (HBS-EP+ buffer) on a Biacore T200 instrument equipped with Protein A or CAP biotin chips (Cytiva). For experiments on Protein A chips, Fc-fused ligands were flowed at 5 μl/min for variable time ranging from 18 to 300 seconds, reaching the capture loads listed in the tables below. Following ligand capture, injections of a 2-fold dilution series of analyte typically comprising at least five concentrations between 1 μM and 1 nM were performed in either high performance or single cycle kinetics mode. Surface regeneration was achieved by flowing 10 mM glycine-HCl, pH 1.5 (60 seconds, […]). Buffer-subtracted sensograms were processed with Biacore T200 Evaluation Software and globally fit with a 1:1 Langmuir binding model (bulk shift set to zero) to extract kinetics and affinity constants (kₐ, kd, KD). RMAX<100 RU indicates surface density compatible with kinetics analysis. Experiments on CAP chips were performed as described above with an additional capture step of Biotin CAPture reagent (10 seconds, 40 uL/min) performed prior to capture of biotinylated ligands. Calculated Rmax were generated using the equation Rmax=Load (RU) x valency of ligand x (Molecular weight of analyte/Molecular weight of ligand. Surface activity was defined as the ratio experimental/calculated Rmax. The results of these experiments are provided in below for sample information and experimental results.

[2] = biological target: T2, hIL2Rg-Fc (SinoBiological cat#10555); test: as above
Description: as §1

[3] = biological target: T1, cIL2Rg-Fc (lot#P210115SV5); test: SPR (Biacore T200); ratio experimental/calculated Rmax
[4] = biological target: T2, hIL2Rg-Fc (SinoBiological cat#10555); test: as above

Binder | Kd [1] [nM] | koff [1] [s⁻¹] | kon [1] [M⁻¹ s⁻¹] | Kd [2] [nM] | koff [2] [s⁻¹] | kon [2] [M⁻¹ s⁻¹] | Surface Activity [3] [%] | Surface Activity [4] [%]
DR466(DR240-DR232) (bispecific antibody, Anti-hIL10Ra/hIL2Rg dual VHH with ASH6 handle; also called H7) QVQLQESGGGSVQAGGSLRLSCGASGYTYSSYCMGWFRQVPGKEREGVAVIDSDGSTSYADSVKGRFTISKDNGKNTLYLQMNSLKPEDTAMYYCAADLGHYRPPCGVLYLGMDYWGKGTQVTVSSGGGSQVQLQESGGGSVQAGGSLRLSCVASGYTSCMGWFRQAPGKEREAVATIYTRGRSIYYADSVKGRFTISQDNAKNTLYLQMNSLKPEDIAMYSCAAGGYSWSAGCEFNYWGQGTQVTVSSASHHHHHH | 49.9 | 0.0037 | 75000 | 20.8 | 0.026 | 1.2e+06 | 9 | 6
DR449(DR237-DR233) (bispecific antibody, Anti-hIL10Ra/hIL2Rg dual VHH with ASH6 handle; also called F3) QVQLQESGGGSVQAGGSLRLSCAASGYTYSMYCMGWFRQAPGKEREGVAQINSDGSTSYADSVKGRFTISKDNAKNTLYLQMNSLKPEDTAMYYCAADSRVYGGSWYERLCGPYTYEYNYWGQGTQVTVSSGGGSQVQLQESGGGSVQAGGSLRLSCTASGFTFDDSDMGWYRQAPGNECELVSTISSDGSTYYADSVKGRFTISQDNAKNTVYLQMNSLKPEDTAVYYCAAEPRGYYSNYGGRRECNYWGQGTQVTVSSASHHHHHH | 22.6 | 0.0048 | 210000 | 30.4 | 0.0065 | 220000 | 1 | 2
DR444(DR236-DR234) (bispecific antibody, Anti-hIL10Ra/hIL2Rg dual VHH with ASH6 handle; also called E8) QVQLQESGGGSVQAGGSLRLSCAASRFTYSSYCMGWFRQAPGKEREGVASIDSDGSTSYTDSVKGRFTISKDNAKNTLYLQMNSLKPEDTAMYYCALDLMSTVVPGFCGFLLSAGMDYWGKGTQVTVSSGGGSQVQLQESGGGSVQAGGSLRLSCVASGYTFSSYCMGWFRQAPGKEREGVAALGGGSTYYADSVKGRFTISQDNAKNTLYLQMNSLKPEDTAMYYCAAAWVACLEFGGSWYDLARYKHWGQGTQVTVSSASHHHHHH | 5.3 | 0.00077 | 150000 | 6.9 | 0.0026 | 380000 | 2 | 5
DR465(DR240-DR231) (bispecific antibody, Anti-hIL10Ra/hIL2Rg dual VHH with ASH6 handle; also called H1) QVQLQESGGGSVQAGGSLRLSCGASGYTYSSYCMGWFRQVPGKEREGVAVIDSDGSTSYADSVKGRFTISKDNGKNTLYLQMNSLKPEDTAMYYCAADLGHYRPPCGVLYLGMDYWGKGTQVTVSSGGGSQVQLQESGGGSVQAGGSLRLSCTASGFTFDDREMNWYRQAPGNECELVSTISSDGSTYYADSVKGRFTISQDNAKNTVYLQMDSVKPEDTAVYYCAADFMIAIQAPGAGCWGQGTQVTVSSASHHHHHH | 3.2 | 0.0022 | 700000 | 14.5 | 0.0037 | 250000 | 1 | 4
DR437(DR235-DR233) (bispecific antibody, Anti-hIL10Ra/hIL2Rg dual VHH with ASH6 handle; also called D6) QVQLQESGGGSVQAGGSLRLSCAASRYLYSIDYMAWFRQSPGKEREPVAVIYTASGATFYPDSVKGRFTISQDNAKMTVYLQMNSLKSEDTAMYYCAAVRKTDSYLFDAQSFTYWGQGTQVTVSSGGGSQVQLQESGGGSVQAGGSLRLSCTASGFTFDDSDMGWYRQAPGNECELVSTISSDGSTYYADSVKGRFTISQDNAKNTVYLQMNSLKPEDTAVYYCAAEPRGYYSNYGGRRECNYWGQGTQVTVSSASHHHHHH | 7.8 | 0.0022 | 290000 | 27.5 | 0.0051 | 190000 | 1 | 3
DR468(DR240-DR234) (bispecific antibody, Anti-hIL10Ra/hIL2Rg dual VHH with ASH6 handle; also called G8) QVQLQESGGGSVQAGGSLRLSCGASGYTYSSYCMGWFRQVPGKEREGVAVIDSDGSTSYADSVKGRFTISKDNGKNTLYLQMNSLKPEDTAMYYCAADLGHYRPPCGVLYLGMDYWGKGTQVTVSSGGGSQVQLQESGGGSVQAGGSLRLSCVASGYTFSSYCMGWFRQAPGKEREGVAALGGGSTYYADSVKGRFTISQDNAKNTLYLQMNSLKPEDTAMYYCAAAWVACLEFGGSWYDLARYKHWGQGTQVTVSSASHHHHHH | 4.3 | 0.001 | 240000 | 8.5 | 0.0015 | 170000 | 1 | 6
DR441(DR236-DR231) (bispecific antibody, Anti-hIL10Ra/hIL2Rg dual VHH with ASH6 handle; also called F1) QVQLQESGGGSVQAGGSLRLSCAASRFTYSSYCMGWFRQAPGKEREGVASIDSDGSTSYTDSVKGRFTISKDNAKNTLYLQMNSLKPEDTAMYYCALDLMSTVVPGFCGFLLSAGMDYWGKGTQVTVSSGGGSQVQLQESGGGSVQAGGSLRLSCTASGFTFDDREMNWYRQAPGNECELVSTISSDGSTYYADSVKGRFTISQDNAKNTVYLQMDSVKPEDTAVYYCAADFMIAIQAPGAGCWGQGTQVTVSSASHHHHHH | 8.3 | 0.0028 | 340000 | 11.1 | 0.0053 | 470000 | 1 | 4

The remaining lines, values ahead:

Kd [1] [nM] | koff [1] [s⁻¹] | kon [1] [M⁻¹ s⁻¹] | Kd [2] [nM] | koff [2] [s⁻¹] | kon [2] [M⁻¹ s⁻¹] | Surface Activity [3] [%] | Surface Activity [4] [%] | Binder
2.4 | 0.004 | 1.6e+06 | 3.6 | 0.0062 | 1.7e+06 | 1 | 4 | DR392(DR229-DR236) (bispecific antibody, Anti-hIL10Ra/hIL2Rg dual VHH with ASH6 handle; also called A7) QVQLQESGGGLVQPGGSLRLSCTASGFSFSSYPMTWARQAPGKGLEWVSTIASDGGSTAYAASVEGRFTISRDNAKSTLYLQLNSLKTEDTAMYYCTKGYGDGTPAPGQGTQVTVSSGGGSQVQLQESGGGSVQAGGSLRLSCAASRFTYSSYCMGWFRQAPGKEREGVASIDSDGSTSYTDSVKGRFTISKDNAKNTLYLQMNSLKPEDTAMYYCALDLMSTVVPGFCGFLLSAGMDYWGKGTQVTVSSASHHHHHH
2.2 | 0.0012 | 560000 | 2.7 | 0.001 | 390000 | 1 | 5 | DR438(DR235-DR234) (bispecific antibody, Anti-hIL10Ra/hIL2Rg dual VHH with ASH6 handle; also called D12) QVQLQESGGGSVQAGGSLRLSCAASRYLYSIDYMAWFRQSPGKEREPVAVIYTASGATFYPDSVKGRFTISQDNAKMTVYLQMNSLKSEDTAMYYCAAVRKTDSYLFDAQSFTYWGQGTQVTVSSGGGSQVQLQESGGGSVQAGGSLRLSCVASGYTFSSYCMGWFRQAPGKEREGVAALGGGSTYYADSVKGRFTISQDNAKNTLYLQMNSLKPEDTAMYYCAAAWVACLEFGGSWYDLARYKHWGQGTQVTVSSASHHHHHH
3.2 | 0.0026 | 800000 | 3.9 | 0.0078 | 2e+06 | 2 | 5 | DR395(DR229-DR239) (bispecific antibody, Anti-hIL10Ra/hIL2Rg dual VHH with ASH6 handle; also called A2) QVQLQESGGGLVQPGGSLRLSCTASGFSFSSYPMTWARQAPGKGLEWVSTIASDGGSTAYAASVEGRFTISRDNAKSTLYLQLNSLKTEDTAMYYCTKGYGDGTPAPGQGTQVTVSSGGGSQVQLQESGGGSVQAGGSLRLSCTVSGYTYSSNCMGWFRQAPGKEREGVATIYTGGGNTYYADSVKGRFTISQDNAKNTVYLQMNNLKPEDTAMYYCAAEPLSRVYGGSCPTPTFDYWGQGTQVTVSSASHHHHHH
2.9 | 0.00093 | 330000 | 3.2 | 0.00099 | 310000 | 2 | 6 | DR474(DR241-DR234) (bispecific antibody, Anti-hIL10Ra/hIL2Rg dual VHH with ASH6 handle; also called H9) QVQLQESGGGSVQAGGSLRLSCAASGYSNCSYDMTWYRQAPGKEREFVSAIHSDGSTRYADSVKGRFFISQDNAKNTVYLQMNSLKPEDTAMYYCKTDPLHCRAHGGSWYSVRANYWGQGTQVTVSSGGGSQVQLQESGGGSVQAGGSLRLSCVASGYTFSSYCMGWFRQAPGKEREGVAALGGGSTYYADSVKGRFTISQDNAKNTLYLQMNSLKPEDTAMYYCAAAWVACLEFGGSWYDLARYKHWGQGTQVTVSSASHHHHHH
